# Legend:
# [1] = tested on: interaction between an ERK substrate and Pin1(ww); assay: Time course of fluorescent foci after EGF and U0126, 293 cells (Example 27); type: cell-based
# Description: On the next day, EGF (manufactured by SIGMA CO.) was added to the cells to the final concentration of 50 ng/ml. Further, 14 minutes thereafter, U0126 was added to the cells to the final concentration of 10 μM. Meanwhile, the cell observation was started 2 minutes before the EGF addition, and the observed images were obtained every 15 seconds. The obtained images were used to analyze a total fluorescence luminance of fluorescent foci (assemblies) by the same method as that described in Example 11, and a graph was prepared by plotting the total fluorescence luminance against time.
# [2] = tested on: interaction between HRas and cRaf; assay: Time course of fluorescent foci after EGF, HRas/cRaf (Example 28); type: cell-based; settings: cells with p62(PB1)-HRas(WT) and AG-cRaf(R59A); 50 ng/ml; vicinity of the cell membrane
# Description: EGF (manufactured by SIGMA CO.) was added thereto to the final concentration of 50 ng/ml. A measurement apparatus capable of detecting a fluorescent signal only in the vicinity of the cell membrane was used for the observation. Note that the observation was started 5 minutes before the EGF addition, and continued at 5-minute intervals for 30 minutes after the addition. The observation was made another 30 minutes thereafter. On the basis of the obtained image data, analysis was performed by the same method as that described in Example 11, and a graph was prepared by plotting a total fluorescence intensity of fluorescent foci (assemblies) against time. Note that, in the graph, the x axis represents time (minutes), provided that time when EGF was added is 0, and the y axis represents the total fluorescence intensity of fluorescent foci (assemblies).
# [3] = tested on: interaction between KRas and cRaf; assay: EGF-dependent fluorescent foci near the cell membrane, Cos-7 cells (Example 23); type: cell-based; settings: Cos-7 cells co-expressing p62(PB1)-KRas(WT) and AG-cRaf(R59A); 50 ng/ml; 37° C. for 30 minutes
# Description: The cells were observed using a total internal reflection fluorescence microscopy system with arc lamp source (manufactured by Olympus Corporation, IX71-ARCEVA) capable of exciting only the vicinity of the cell membrane. Additionally, regarding the combination of pp62(PB1)-KRas (WT) with the phAG-cRaf (R59A), an image was obtained when no EGF was added. After that, EGF (manufactured by SIGMA CO.) was added to the cells to the final concentration of 50 ng/ml and left standing at 37° C. for 30 minutes. Then, the resultant was observed again.
# [4] = tested on: interaction between Rac1 and RhoGDI; assay: Fluorescent foci after mevastatin, Rac1/RhoGDI (Example 22); type: cell-based; settings: cells co-expressing AG-Rac1 and RhoGDI-p62(PB1); 10 μM; 15 hours
# Description: (§1) Then, each of the following combinations of the plasmid DNAs was mixed in equal amounts and introduced into cells by the same method as in Example 2: • a combination of phAG-Rac1 with pp62(PB1)-PBD; and • a combination of phAG-Rac1 with pRhoGDI-p62(PB1). Then, after culturing for 6 hours after the transfection, an inhibitor mevastatin (Enzo Life Sciences, Inc.) against geranylgeranyl group modification was added to the final concentration of 10 μM, allowed for further culturing for 15 hours, and observed.
# [5] = tested on: interaction between Rac1 and PBD; assay: Localization of fluorescent foci after mevastatin, Rac1/PBD (Example 22); type: cell-based; settings: cells co-expressing AG-Rac1 and p62(PB1)-PBD; 10 μM; 15 hours
# Description: as §1
# [6] = biological target: T1, mTOR(FRB) and FKBP12 interaction (Homo sapiens, UniProt P42345+P62942); assay: Degree of fluorescent focus (assembly) formation after rapamycin, fluorescent proteins fused to mTOR(FRB) (Example 8, Table 1); type: cell-based; set-up: key to degree of fluorescent focus formation, Tankyrase (SAM): +++: fluorescent foci were observed in 50% or more of the HeLaS3 cells; ++: fluorescent foci were observed in 50% or less of the HeLaS3 cells; +: fluorescent foci were observed in 293T cells expressing a larger amount of proteins than that in the HeLaS3 cells; settings: fluorescent protein fused to mTOR(FRB); for degree of fluorescent focus formation, DGKd (SAM): with FKBP12-DGKd(SAM); for degree of fluorescent focus formation, TEL (SAM): with FKBP12-TEL(SAM); for degree of fluorescent focus formation, Tankyrase (SAM): with FKBP12-Tankyrase(SAM), some combinations in 293T cells; for degree of fluorescent focus formation, P62 (PB1): with p62(PB1)-FKBP12
# T1 construct: region having the 2025th to 2114th amino acids of the mTOR protein; expressed in transfected cells; host or cells: HeLaS3; 293T for some combinations with FKBP12-Tankyrase(SAM)
# Description: Note that plasmid DNAs encoding fusion proteins composed of mTOR(FRB) and the corresponding fluorescent proteins were prepared as appropriate by the same method as that described in Example 2. Moreover, regarding the combinations of FKBP12-Tankyrase(SAM) with mKO2, mKeima, mMiCy1, mKO1, MiCy1, and TGuv, the test was conducted by introducing the genes into 293T cells. Specifically, the 293T cells were cultured in DMEM High glucose (manufactured by SIGMA ALDRICH CO.) containing 10% FBS (manufactured by Equitech-Bio Inc.). Moreover, the 293T cells were seeded onto an 8-well chamber (manufactured by Nunc A/S) 6 hours before the plasmid DNAs were introduced. Further, at the time of the transfection, 200 ng of the plasmid DNA encoding FKBP12-Tankyrase(SAM) and 200 ng of one of the plasmid DNAs encoding fusion proteins composed of the fluorescent proteins and mTOR(FRB) were diluted with 30 μl of OptiMEM (manufactured by Life Technologies Corporation), and 1.2 μl of TurboFect Transfection Reagent (manufactured by Thermo Fisher Scientific Inc.) was added thereto and stirred. Then, the resultant was further mixed with 300 μl of the culture solution, subsequently added to the 293T cells, and observed 48 hours later.
# [7] = biological target: T2, interaction between BclX(L) and Bax (Homo sapiens, UniProt Q07817); assay: Time course of fluorescent foci after ABT-737 addition, BclX(L)/Bax (Example 24); type: cell-based; settings: 293 cells co-expressing p62(PB1)-BclX(L) and AG-Bax; 15 μM
# T2 construct: region having the 1st to 209th amino acids of the BclX(L) protein; expressed in transfected cells; host or cells: 293 cells, transient
# Description: (§2) The plasmid DNAs were mixed in equal amounts in the following combinations, and the genes were introduced into 293 cells by the same method as that described in Example 2: • a combination of pp62(PB1)-BclX(L) with pBak-hAG; and • a combination of pp62(PB1)-BclX(L) with phAG-Bax.
# (§3) Then, to the 293 cells into these plasmid DNAs were introduced, ABT-737 (manufactured by Santa Cruz Biotechnology, Inc.) was added to the final concentration of 15 μM, and images were obtained by the same method as that described in Example 2 every 30 minutes for the cells co-expressing p62(PB1)-BclX(L) and Bak-AG, and every 5 minutes for the cells co-expressing p62(PB1)-BclX(L) and AG-Bax. On the basis of the obtained images, analysis was performed by the same method as that described in Example 11, and a graph was prepared by plotting a total fluorescence intensity of fluorescent foci (assemblies) against time. Note that, in the graph, the x axis represents time (minutes), provided that time when the drug was added is 0, and the y axis represents the total fluorescence intensity of fluorescent foci (assemblies).
# [8] = biological target: T3, interaction between BclX(L) and Bak (Homo sapiens, UniProt Q07817); assay: Time course of fluorescent foci after ABT-737 addition, BclX(L)/Bak (Example 24); type: cell-based; settings: 293 cells co-expressing p62(PB1)-BclX(L) and Bak-AG; 15 μM
# T3 construct: region having the 1st to 209th amino acids of the BclX(L) protein; expressed in transfected cells; host or cells: 293 cells, transient
# Description: as §2, §3
# [9] = biological target: T1, mTOR(FRB) and FKBP12 interaction; assay: Degree of fluorescent focus (assembly) formation after rapamycin with TFG(PB1) (Example 9, Table 2); type: cell-based; set-up: key: ++: fluorescent foci were observed in 50% or less of the HeLaS3 cells; +: fluorescent foci were observed in the 293T cells expressing a larger amount of proteins than that in the HeLaS3 cells; settings: fluorescent protein fused to mTOR(FRB), KO1 and dAG (AB) in 293T cells
# [10] = tested on: interaction between calmodulin and M13 peptide of myosin light chain kinase 2; settings: 200 μM
# Description: pCalmodulin-hAG and pM13peptide-p62(PB1) were mixed in equal amounts and introduced into HeLaS3 cells by the same method as that described in Example 1. Then, 200 μM histamine (manufactured by Wako Pure Chemical Industries, Ltd.) was added thereto, and fluorescence images were captured over time.
# T1 sequence (P42345 2025-2114): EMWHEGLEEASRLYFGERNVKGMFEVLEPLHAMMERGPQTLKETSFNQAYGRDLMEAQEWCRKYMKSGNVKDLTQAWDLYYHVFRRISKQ
# T1 sequence (P62942 whole entry, the tested form may be a part): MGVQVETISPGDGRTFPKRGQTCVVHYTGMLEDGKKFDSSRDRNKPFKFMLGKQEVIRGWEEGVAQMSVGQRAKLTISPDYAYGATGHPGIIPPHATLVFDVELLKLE
# T2 sequence (Q07817 1-209): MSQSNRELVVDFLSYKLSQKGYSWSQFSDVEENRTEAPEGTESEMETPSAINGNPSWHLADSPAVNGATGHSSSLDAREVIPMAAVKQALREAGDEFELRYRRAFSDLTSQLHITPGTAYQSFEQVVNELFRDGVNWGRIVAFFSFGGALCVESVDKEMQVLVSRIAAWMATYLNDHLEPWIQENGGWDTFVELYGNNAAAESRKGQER
# T3 sequence (Q07817 1-209): as above
Compound,"degree of fluorescent focus formation, DGKd (SAM) [6]","degree of fluorescent focus formation, TEL (SAM) [6]","degree of fluorescent focus formation, Tankyrase (SAM) [6]","degree of fluorescent focus formation, P62 (PB1) [6]",further results
"N#CC(=C(/N)Sc1ccccc1N)/C(C#N)=C(\N)Sc1ccccc1N [U0126, reference compound]",–,–,–,–,"fluorescent foci after U0126 addition ([1]; same cells, 10 μM, added 14 minutes after EGF): the fluorescent foci were slowly decreased"
"epidermal growth factor (NSDSECPLSHDGYCLHDGVCMYIEALDKYACNCVVGYIGERCQYRDLKWWELR; Epidermal growth factor; UniProt P01133 971-1023, looked up) [EGF]",–,–,–,–,"interaction between HRas and cRaf after EGF addition [2]: took place by adding EGF; fluorescent foci after EGF addition ([1]; 293 cells expressing p62(PB1)-ERK_substrate and AG-Pin1(ww)-NES, 50 ng/ml): fluorescent foci (assemblies) were significantly observed as time elapsed; assembly formation after EGF addition [3]: the assembly formation was observed at the cell membranes"
CC[C@H](C)C(=O)O[C@H]1CCC=C2C=C[C@H](C)[C@H](CC[C@@H]3C[C@@H](O)CC(=O)O3)[C@H]21 [mevastatin],–,–,–,–,interaction between Rac1 and RhoGDI [4]: reduced; localization of the interaction between Rac1 and PBD [5]: the interaction took place only in the nuclei
Midoriishi-Cyan1 [MiCy1],+++ (fluorescent foci were observed in 50% or more of the HeLaS3 cells),+++ (fluorescent foci were observed in 50% or more of the HeLaS3 cells),+,+++ (fluorescent foci were observed in 50% or more of the HeLaS3 cells),–
CN(C)CC[C@H](CSc1ccccc1)Nc1ccc(S(=O)(=O)NC(=O)c2ccc(N3CCN(Cc4ccccc4-c4ccc(Cl)cc4)CC3)cc2)cc1[N+](=O)[O-] [ABT-737],–,–,–,–,time when the total fluorescence luminance reached a half value [7]: approximately 35 minutes; time when the total fluorescence luminance reached a half value [8]: approximately 80 minutes
Azami-Green [AG],+++ (fluorescent foci were observed in 50% or more of the HeLaS3 cells),+++ (fluorescent foci were observed in 50% or more of the HeLaS3 cells),+++ (fluorescent foci were observed in 50% or more of the HeLaS3 cells),+++ (fluorescent foci were observed in 50% or more of the HeLaS3 cells),"degree of fluorescent focus formation, TFG (PB1) [9]: ++ (fluorescent foci were observed in 50% or less of the HeLaS3 cells)"
monomeric Keima-Red [mKeima],+++ (fluorescent foci were observed in 50% or more of the HeLaS3 cells),++ (fluorescent foci were observed in 50% or less of the HeLaS3 cells),+,+++ (fluorescent foci were observed in 50% or more of the HeLaS3 cells),–
Kikume Green-Red [KikGR],+++ (fluorescent foci were observed in 50% or more of the HeLaS3 cells),+++ (fluorescent foci were observed in 50% or more of the HeLaS3 cells),+++ (fluorescent foci were observed in 50% or more of the HeLaS3 cells),+++ (fluorescent foci were observed in 50% or more of the HeLaS3 cells),"degree of fluorescent focus formation, TFG (PB1) [9]: ++ (fluorescent foci were observed in 50% or less of the HeLaS3 cells)"
monomeric Kusabira-Orange 1 [mKO1],+++ (fluorescent foci were observed in 50% or more of the HeLaS3 cells),+++ (fluorescent foci were observed in 50% or more of the HeLaS3 cells),+,+++ (fluorescent foci were observed in 50% or more of the HeLaS3 cells),–
NCCc1c[nH]cn1 [histamine],–,–,–,–,"fluorescent foci at the later time point ([10]; 490 seconds after the cytoplasm calcium ion concentration was decreased): extinguished; fluorescent focus formation after ligand addition ([10]; HeLaS3 cells expressing Calmodulin-AG and M13peptide-p62(PB1), 90 seconds after addition): fluorescent focus formation was detected"
Kusabira-Orange 1 [KO1],+++ (fluorescent foci were observed in 50% or more of the HeLaS3 cells),+++ (fluorescent foci were observed in 50% or more of the HeLaS3 cells),++ (fluorescent foci were observed in 50% or less of the HeLaS3 cells),+++ (fluorescent foci were observed in 50% or more of the HeLaS3 cells),"degree of fluorescent focus formation, TFG (PB1) [9]: +"
dimeric Keima-Red [dKeima],+++ (fluorescent foci were observed in 50% or more of the HeLaS3 cells),+++ (fluorescent foci were observed in 50% or more of the HeLaS3 cells),++ (fluorescent foci were observed in 50% or less of the HeLaS3 cells),+++ (fluorescent foci were observed in 50% or more of the HeLaS3 cells),–

# Reference: patent US9766250B2, “Method for detecting protein-protein interaction” (MEDICAL & BIOLOGICAL LABORATORIES CO., LTD., priority 2011, dated 2017)
